# Experimental data taken from patent US20140120109A1 (Regeneron, published 2014).
# T1: human TL1A, soluble, CHO-expressed, residues 72-251 of SEQ ID NO:244 with N-terminal His6-tag (human, UniProt O95150 72-251)
# T1 sequence: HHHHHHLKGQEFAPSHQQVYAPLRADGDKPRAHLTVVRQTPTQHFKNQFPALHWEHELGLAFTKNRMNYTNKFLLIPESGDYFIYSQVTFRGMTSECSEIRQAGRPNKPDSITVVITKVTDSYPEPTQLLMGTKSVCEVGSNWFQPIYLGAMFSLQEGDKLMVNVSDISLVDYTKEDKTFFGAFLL
# T2: human TL1A, soluble, E. coli-expressed, residues 72-251 of SEQ ID NO:244 (human, UniProt O95150 72-251)
# T2 sequence: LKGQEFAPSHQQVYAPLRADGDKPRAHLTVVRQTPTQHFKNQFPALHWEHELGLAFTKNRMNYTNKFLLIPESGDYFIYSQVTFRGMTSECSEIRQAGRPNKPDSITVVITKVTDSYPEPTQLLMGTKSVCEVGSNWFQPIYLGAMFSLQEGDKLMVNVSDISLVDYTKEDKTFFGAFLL
# T3: cynomolgus monkey TL1A, soluble, CHO-expressed, residues 72-251 of SEQ ID NO:248 with N-terminal His6-tag (cynomolgus monkey (Macaca fascicularis), UniProt O95150 72-251 (human entry))
# T3 chain: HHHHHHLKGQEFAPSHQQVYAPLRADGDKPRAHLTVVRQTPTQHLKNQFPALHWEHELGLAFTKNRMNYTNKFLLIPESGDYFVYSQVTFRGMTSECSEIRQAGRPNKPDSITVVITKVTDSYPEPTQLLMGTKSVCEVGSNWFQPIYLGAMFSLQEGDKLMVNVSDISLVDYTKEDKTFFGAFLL
# T4: cynomolgus monkey TL1A, soluble, E. coli-expressed, residues 72-251 of SEQ ID NO:248 (cynomolgus monkey (Macaca fascicularis), UniProt O95150 72-251 (human entry))
# T4 chain: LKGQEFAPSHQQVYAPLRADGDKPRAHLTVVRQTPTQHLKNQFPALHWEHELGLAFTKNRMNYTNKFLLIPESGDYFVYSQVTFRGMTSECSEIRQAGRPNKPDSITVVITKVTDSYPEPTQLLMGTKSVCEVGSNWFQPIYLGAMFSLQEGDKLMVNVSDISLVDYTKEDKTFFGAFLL
# T5: full length human TL1A expressed on HEK293 cells (human, UniProt O95150 1-251)
# T5 sequence: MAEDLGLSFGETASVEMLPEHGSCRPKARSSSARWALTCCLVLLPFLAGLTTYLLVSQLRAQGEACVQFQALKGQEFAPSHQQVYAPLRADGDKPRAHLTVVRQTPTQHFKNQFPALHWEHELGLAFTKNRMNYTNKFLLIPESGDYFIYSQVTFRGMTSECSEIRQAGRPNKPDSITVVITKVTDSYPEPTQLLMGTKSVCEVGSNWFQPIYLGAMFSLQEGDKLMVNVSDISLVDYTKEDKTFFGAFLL
# T6: full-length cynomolgus monkey TL1A expressed on HEK293 cells (cynomolgus monkey (Macaca fascicularis), UniProt O95150 1-251 (human entry))
# T6 chain: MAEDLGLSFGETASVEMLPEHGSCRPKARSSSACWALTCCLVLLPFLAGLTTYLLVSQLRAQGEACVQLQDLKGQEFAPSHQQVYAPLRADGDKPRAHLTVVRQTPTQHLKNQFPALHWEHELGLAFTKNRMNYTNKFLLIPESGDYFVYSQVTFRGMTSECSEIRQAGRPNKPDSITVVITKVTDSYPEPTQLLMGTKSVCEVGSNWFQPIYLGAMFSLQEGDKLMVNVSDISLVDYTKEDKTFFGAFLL
# B1: H4H1742P (antibody, human IgG4 S228P, V domains shown)
# VH: EVQLVESGGGLVQPGGSLRLSCAASGFTFSNYVMNWVRQAPGKGLEWVSVISGSGGSTHYADSVKGRFTISRDNSKDALYLQMNSLRAEDTAVYYCAKGPLEAYYYYNGMDVWGQGTTVTVSS
# VL: DIQLTQSPSFLSASVGDRVTITCWASQAISSYLAWYQHKPGRAPKLLIYSTSTLQSGVPSRFSGSGSGTEFTLTISSLQPEDFATYYCQQLNSYPTFGQGTKLEIK
# B2: H4H1725P (antibody, human IgG4 S228P, V domains shown)
# VH: QVQLVQSGAEVKKPGASVKVSCKASGYTFTGYYMHWVRQAPGQGLEWMGWIKPKSGGTNYVQKFQGRVTMTRDTSINTAYMELNNLKSDDTAVYYCATGGSQDASDFWGQGTMVTVSS
# VL: DIQMTQSPSSVSASVGGRVTITCRASQDISIWLAWYQQKPGKAPNLLIYAASSLQSGVPSRFSGSGSGTDFTLTISSLQPEDFATYYCQQADSFPLTFGGGTKVEIK
# Columns and labels:
# [1] = target: T1, human TL1A, soluble, CHO-expressed, …; assay: cell-based or functional assay
# [2] = target: T2, human TL1A, soluble, E. coli-expressed, …; assay: cell-based or functional assay
# [3] = target: T3, cynomolgus monkey TL1A, soluble, …; assay: cell-based or functional assay
# [4] = target: T4, cynomolgus monkey TL1A, soluble, E. …; assay: cell-based or functional assay
# [5] = target: T5, full length human TL1A expressed on …; assay: cell-based or functional assay
# [6] = target: T6, full-length cynomolgus monkey TL1A …; assay: cell-based or functional assay
# [7] = target: T1, human TL1A, soluble, CHO-expressed, …; assay: cell-based or functional assay; remark: listed apart in the source
# [8] = target: T3, cynomolgus monkey TL1A, soluble, …; assay: ELISA, blocks MfTL1A (500 pM) binding hDR3-Fc
# Method in brief: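 Competition sandwich ELISA: biotinylated CHO-expressed ligand (human TL1A, FHM Q167R variant, or cynomolgus TL1A) at fixed concentration preincubated with titrated antibody 1 h at 25 °C, then 1 h on hDR3-Fc or hDcR3-Fc coated wells. Bound ligand detected by streptavidin-HRP/TMB at 450 nm; sigmoidal dose-response fit.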
Binder,"IC50, NFkB-luciferase reporter [1]","IC50, NFkB-luciferase reporter [2]","IC50, NFkB-luciferase reporter [3]","IC50, NFkB-luciferase reporter [4]","IC50, reporter + 10,000 TL1A cells [5]","IC50, reporter + 10,000 TL1A cells [6]","IC50, IFN-g release, average of donors [7]","IC50, IFN-g release, donor D1 [7]","IC50, IFN-g release, donor D2 [7]","IC50, IFN-g release, donor D3 [7]","IC50, IFN-g release, donor D4 [7]","IC50, IFN-g release, donor D5 [7]","IC50, IFN-g release, donor D6 [7]","IC50, IFN-g release, donor D7 [7]","IC50, IFN-g release, donor D8 [7]","IC50, IFN-g release, donor D9 [7]","IC50, IFN-g release, donor D10 [7]","IC50, IFN-g release, donor D11 [7]","IC50, IFN-g release, donor D12 [7]",IC50 [8]
B1,0.31 nM,0.19 nM,0.26 nM,0.07 nM,6.55 nM,18.4 nM,20 nM,24 nM,4.6 nM,10 nM,13 nM,12 nM,10 nM,31 nM,27 nM,56 nM,12 nM,27 nM,14 nM,0.24 nM
B2,0.05 nM,0.02 nM,0.01 nM,0.02 nM,0.66 nM,2.82 nM,6.4 nM,3.4 nM,3.2 nM,5.4 nM,4.7 nM,7 nM,5.4 nM,13 nM,12 nM,6.4 nM,4.1 nM,6.1 nM,6.4 nM,0.016 nM
